Test results from US20020177203A1 (published 2002).

Target: T1, mouse α2 subunit of prolyl 4-hydroxylase (mouse, UniProt Q60716 20-537)
T1 construct: Recombinant, made in Sf9 insect cells with a baculovirus; also called α(2) subunit of mouse prolyl 4-hydroxylase; α2 polypeptide
Experiment: coexpression in insect cells; nondenaturing PAGE and Western blot
Description: A recombinant baculovirus coding for the mouse α2 subunit was generated and used to infect S. frugiperda insect cells with or without the human PDI/β subunit, wherein the insect cells were infected at a multiplicity of 5. For production of an enzyme tetramer, the human α59 1 (see, Vuori, et al., supra) or mouse α2 viruses and the PDI/β viruses (id.) were used in a 1:1 or 2:1 ratio. The cells were harvested 72 hours after infection, homogenized in 0.01 M tris, pH 7.8/0.1 M NaCl/0.1 M glycine/10 μM dithiothreitol/0.1% Triton X-100, and centrifuged. The resulting supematants were analyzed by SDS/8% PAGE or nondenaturing 7.5% PAGE and assayed for enzyme activities.

T1 sequence (Q60716 20-537): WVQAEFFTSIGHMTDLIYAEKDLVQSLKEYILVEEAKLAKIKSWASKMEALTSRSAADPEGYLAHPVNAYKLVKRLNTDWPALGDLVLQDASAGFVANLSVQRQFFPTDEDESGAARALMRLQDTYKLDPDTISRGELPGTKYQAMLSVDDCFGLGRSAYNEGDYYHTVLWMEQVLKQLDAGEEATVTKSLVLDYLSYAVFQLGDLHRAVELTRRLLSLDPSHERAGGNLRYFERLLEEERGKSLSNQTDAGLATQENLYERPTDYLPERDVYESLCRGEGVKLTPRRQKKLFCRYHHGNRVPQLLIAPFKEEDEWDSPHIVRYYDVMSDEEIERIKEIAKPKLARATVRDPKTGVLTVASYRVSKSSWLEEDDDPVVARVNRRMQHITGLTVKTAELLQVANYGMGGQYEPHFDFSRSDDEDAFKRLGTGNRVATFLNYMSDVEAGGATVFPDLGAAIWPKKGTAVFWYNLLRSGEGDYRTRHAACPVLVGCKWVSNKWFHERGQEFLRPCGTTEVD

B1: human PDI/β subunit of prolyl 4-hydroxylase (protein disulfide-isomerase) (enzyme)
chain: not shown
notes: Made in Sf9 insect cells with a recombinant baculovirus (Vuori et al.); also called human β subunit
  binding result: binds
